Reference: patent publication US20220025021A1 (BETH ISRAEL DEACONESS MEDICAL CENTER, published 2022)
Changes are numbered by the printed parent chain.

B1: MS-116 (antibody)
VH: not shown
VL: DIVLTQSPHSLSVTPGEPASISCKSSHSLIHGDRNNYLAWYVQKPGRSPQLLIYLASSRASGVPDRFSGSGSGKDFTLKISRVEAEDVGTYYCMQGRESPWTFGQGTKVDIKRTVAAPSVFIFPPSDEQLKSGTASVVCLLNNFYPREAKVQWKVDNALQSGNSQESVTEQDSKDSTYSLSSTLTLSKADYEKHKVYACEVTHQGLSSPVTKSFNRGEC
B2: MS-101 (antibody)
VH: not shown
VL: B1 VL with I2F, G73D
B3: MS-96 (antibody)
VH: not shown
VL: B1 VL with P18S, G73D
B4: MS-95 (antibody)
VH: not shown
VL: B1 VL with P18S, A85T
B5: MS-98 (antibody)
VH: not shown
VL: B1 VL with I2F, H9L, P18S, A85T
B6: MS-93 (antibody)
VH: not shown
VL: B1 VL with H9L, P18S, G73D, A85T
B7: MS-97 (antibody)
VH: not shown
VL: B1 VL with I2F, H9L, G73D, A85T
B8: MS-104 (antibody)
VH: not shown
VL: B1 VL with H9L, P18S, A85T

biological target: HIV-1 envelope glycoprotein of pseudovirus SC422661.8 (HIV-1); experiment: cell-based or functional assay

Row | Binder | IC50 (neutralization in TZM.bl cells) [µg/mL] | IC80 (neutralization in TZM.bl cells) [µg/mL]
1 | B1 | 0.185 | 1.06
2 | B2 | 0.251 | 1.88
3 | B3 | 0.397 | 2.82
4 | B4 | 0.433 | 2.88
5 | B5 | 0.301 | 2.14
6 | B6 | 0.333 | 2.71
7 | B7 | 0.311 | 2.09
8 | B8 | 0.277 | 1.52

biological target: HIV-1 envelope glycoprotein of pseudovirus RHPA4259.7 (HIV-1); experiment: cell-based or functional assay

Row | Binder | IC50 (neutralization in TZM.bl cells) [µg/mL] | IC80 (neutralization in TZM.bl cells) [µg/mL]
9 | B1 | 0.187 | 0.663
10 | B2 | 0.227 | 0.816
11 | B3 | 0.252 | 1.14
12 | B4 | 0.208 | 0.69
13 | B5 | 0.146 | 0.676
14 | B6 | 0.358 | 1.6
15 | B7 | 0.183 | 0.824
16 | B8 | 0.227 | 1.02

biological target: HIV-1 envelope glycoprotein of pseudovirus DU172.17 (HIV-1); experiment: cell-based or functional assay

Row | Binder | IC50 (neutralization in TZM.bl cells) [µg/mL] | IC80 (neutralization in TZM.bl cells) [µg/mL]
17 | B1 | 1.97 | 6.71
18 | B2 | 2.41 | 6.88
19 | B3 | 3.58 | 13
20 | B4 | 1.97 | 7.07
21 | B5 | 1.44 | 6.33
22 | B6 | 3.24 | 9.14
23 | B7 | 2.21 | 7.54
24 | B8 | 2.58 | 9.41

biological target: HIV-1 envelope glycoprotein of pseudovirus BB1012-11.TC21 (HIV-1); experiment: cell-based or functional assay

Row | Binder | IC50 (neutralization in TZM.bl cells) [µg/mL] | IC80 (neutralization in TZM.bl cells) [µg/mL]
25 | B1 | 0.03 | 0.139
26 | B2 | 0.037 | 0.121
27 | B3 | 0.047 | 0.195
28 | B4 | 0.044 | 0.117
29 | B5 | 0.025 | 0.114
30 | B6 | 0.034 | 0.118
31 | B7 | 0.04 | 0.13
32 | B8 | 0.032 | 0.137

biological target: HIV-1 envelope glycoprotein of pseudovirus CNE52 (HIV-1); experiment: cell-based or functional assay

Row | Binder | IC50 (neutralization in TZM.bl cells) [µg/mL] | IC80 (neutralization in TZM.bl cells) [µg/mL]
33 | B1 | 0.321 | 3.09
34 | B2 | 0.145 | 1.23
35 | B3 | 0.543 | 5.36
36 | B4 | 0.567 | 5.05
37 | B5 | 0.237 | 1.91
38 | B6 | 0.636 | 5.6
39 | B7 | 0.214 | 1.62
40 | B8 | 0.509 | 6.48

biological target: HIV-1 envelope glycoprotein of pseudovirus 0260.v5.c36 (HIV-1); experiment: cell-based or functional assay

Row | Binder | IC50 (neutralization in TZM.bl cells) [µg/mL] | IC80 (neutralization in TZM.bl cells) [µg/mL]
41 | B1 | 0.024 | 0.067
42 | B2 | 0.025 | 0.069
43 | B3 | 0.026 | 0.093
44 | B4 | 0.022 | 0.06
45 | B5 | 0.019 | 0.068
46 | B6 | 0.034 | 0.116
47 | B7 | 0.028 | 0.096
48 | B8 | 0.024 | 0.084
